Assay [1] has as its target HIV-1JR-FL envelope glycoprotein gp120/gp41 on HeLa-EnvJR-FL+ cells (HIV-1 JR-FL). As to the kind of experiment: cell-based or functional assay.
For assay [2], the target named is CCR5 chemokine receptor on the cell surface (UniProt P51681). Description: flow cytometry on L1.2-CCR5+ cells, PE anti-mouse IgG.
Assay [3] has the same target.
Assay [4] has the same target. As to the kind of experiment: cell-based or functional assay.
The target is the same in assay [5]. As to the kind of experiment: flow cytometry on PHA/IL-2-stimulated PBMC.

The results in this text go back to patent US7037497.

Where only a bound is given, the exact number is not on record here.

Sequence of UniProt P51681 (P51681 whole entry): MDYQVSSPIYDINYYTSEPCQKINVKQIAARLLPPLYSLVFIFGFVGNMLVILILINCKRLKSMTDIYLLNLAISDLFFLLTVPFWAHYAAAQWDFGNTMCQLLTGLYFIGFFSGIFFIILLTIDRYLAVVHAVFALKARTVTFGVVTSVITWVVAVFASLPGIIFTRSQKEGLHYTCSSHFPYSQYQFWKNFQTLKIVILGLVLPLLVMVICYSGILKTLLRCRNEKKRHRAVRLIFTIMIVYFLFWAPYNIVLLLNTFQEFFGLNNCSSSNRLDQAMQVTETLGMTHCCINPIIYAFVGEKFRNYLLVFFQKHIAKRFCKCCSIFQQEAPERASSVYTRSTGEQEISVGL

“CD4-IgG2 (from UniProt P01730 26-204; P01730 26-204) (Fc fusion)” showed a K (= IC50) of the median effect fit, inhibition of env-mediated membrane fusion (RET assay) in assay [1] of 0.31 µg/mL.
The same measure, in the same setting: with T-20 peptide the figure was 0.017 µg/mL.
Usually IC50 stands for the concentration at which inhibition is half-maximal. Higher therefore signals weaker potency. For the substance anti-CCR5 mAb 2D7 (antibody), the % of cells stained (% of L1.2-CCR5+ cells) in assay [2] is more than 90. Moreover, in assay [3], the IC50 came out at 1.38 µg/mL. In assay [4], this substance had an IC50, inhibition of JR-FL entry (luciferase reporter virus, U87MG-CD4+CCR5+ cells) of 0.026 µg/mL; an IC50, inhibition of cell-cell fusion (RET assay, PM1 and HeLa-EnvJR-FL+ cells) of 1.6 µg/mL; a K (= IC50) of the median effect fit, inhibition of cell-cell fusion (RET assay) of 0.36 µg/mL. For the same substance, in assay [5], the % of cells stained was > 20 % of PBMC.
For the substance “anti-CCR5 monoclonal antibody PA14 (ATCC No. HB-12610)”, the % of cells stained (% of L1.2-CCR5+ cells) in assay [2] is more than 90. Besides, the IC50 in assay [3] stood at 1.58 µg/mL. In assay [4], the IC50, inhibition of JR-FL entry (luciferase reporter virus, U87MG-CD4+CCR5+ cells) amounted to 0.024 µg/mL; the IC50, inhibition of RANTES-induced calcium influx in L1.2-CCR5+ cells amounted to 50 µg/mL; the IC50, inhibition of cell-cell fusion (RET assay, PM1 and HeLa-EnvJR-FL+ cells) was 1.7 µg/mL; the IC50 of calcium influx inhibition, PA14 against 2D7 came out at 8 fold. Also, in assay [5], the % of cells stained is > 20 % of PBMC and the fold difference of m.f.i. against PA9 turned out to be 7 fold.
